Target: TNFR
Test: cell-based or functional assay

EC50, stimulation of HEK-Blue TNFα cells (SEAP reporter): 3.1 pM
B1: cynomolgus TNFα (ligand)
chain: VRSSSRTPSDKPVAHVVANPQAEGQLQWLNRRANALVANGVELTDNQLVVPSEGLYLIYSQVLFKGQGCPSNHVLLTHTISRIAVSYQTKVNLLSAIKSPCQRETPEGAEAKPWYEPIYLGGVFQLEKGDRLSAEINLPDYLDFAESGQVYFGIIAL
modifications: biotinylated in the binding ELISA (sites not given)
